{"source": "paper PMC3742580", "origin": "cited, not measured here", "molecular_target": "Ras (Homo sapiens) (UniProt P01112)"}
{"substance": "RalGDS RA (from UniProt Q12967)", "values": [{"measurement": "Kd", "result": 1.9, "unit": "µM"}]}
